Target: extracellular matrix (ECM; BD Matrigel)
Assay: ECL on Matrigel-coated plate, signal divided by that of MRAH-G1d/MRAL-k0

Binder	ECM binding ratio (standard = 1) (ratio to standard antibody)
TR01H040-E2702GsKsc/H0610-E2704sEpsc/L0208-k0 (bispecific antibody, human IgG4 S228P, kappa, N297A) heavy 1: QVQLVESGGGLVQPGRSLRLSCAASGFTFSNAWMHWVRQAPGKGLEWVAQIKDKSQNYATYYAESVKGRFTISRADSKNSIYLQMNSLKTEDTAVYYCRYVHYSASYGVDAWGQGTTVTVSSASTKGPSVFPLAPCSRSTSESTAALGCLVKDYFPEPVTVSWNSGALTSGVHTFPAVLQSSGLYSLSSVVTVPSSSLGTKTYTCNVDHKPSNTKVDKRVESKYGPPCPPCPAPEFRGGPKVFLFPPKPKDTLMISRTPEVTCVVVDVSQEDPEVQFNWYVDGVEVHNAKTKPREEQFASTYRVVSVLTVLHQDWLNGKEYKCKVSNKGLPSSIEKTISKAKGQPREPQVYTLPPSQKEMTKNQVSLTCLVKGFYPSDIAVEWESNGQPENNYKTTPPVLDSDGSFFLYSKLTVDKSRWQEGNVFSCSVMHEALHNRYTQKSLSLSP heavy 2: QVQLVQSGAEVKKPGASVKVSCKASGYTFTDYEMHWIRQPPGQGLEWIGAIDGKTPDTAYSQKFKGRVTLTADKSTSTAYMELSSLTSEDTAVYYCTRFYSYTYWGQGTLVTVSSASTKGPSVFPLAPCSRSTSESTAALGCLVKDYFPEPVTVSWNSGALTSGVHTFPAVLQSSGLYSLSSVVTVPSSSLGTQTYTCNVDHKPSNTKVDKRVESKYGPPCPPCPAPEFRGGPKVFLFPPKPKDTLMISRTPEVTCVVVDVSQEDPEVQFNWYVDGVEVHNAKTKPREEQFASTYRVVSVLTVLHQDWLNGKEYKCKVSNKGLPSSIEKTISKAKGQPREPQVYTLPPSQEEMTKNQVSLTCLVKGFYPSDIAVEWESNGQPENNYKTTPPVLDSDGSFFLYSKLTVDKSRWQEGNVFSCSVMHEALHNHYTQESLSLSP light: DIVMTQSPLSLPVTPGEPASISCRSSQSPVHSNRNTYLHWYQQKPGQAPRLLIYKVSNRFWGVPDRFSGSGSGTDFTLKISRVEAEDVGVYYCYQGTQVPYTFGQGTKLEIKRTVAAPSVFIFPPSDEQLKSGTASVVCLLNNFYPREAKVQWKVDNALQSGNSQESVTEQDSKDSTYSLSSTLTLSKADYEKHKVYACEVTHQGLSSPVTKSFNRGEC	50.4
TR01H040-E2702GsKsc/H0610-E2704sEpsc/L0206-k0 (bispecific antibody, human IgG4 S228P, kappa, N297A) heavy 1: QVQLVESGGGLVQPGRSLRLSCAASGFTFSNAWMHWVRQAPGKGLEWVAQIKDKSQNYATYYAESVKGRFTISRADSKNSIYLQMNSLKTEDTAVYYCRYVHYSASYGVDAWGQGTTVTVSSASTKGPSVFPLAPCSRSTSESTAALGCLVKDYFPEPVTVSWNSGALTSGVHTFPAVLQSSGLYSLSSVVTVPSSSLGTKTYTCNVDHKPSNTKVDKRVESKYGPPCPPCPAPEFRGGPKVFLFPPKPKDTLMISRTPEVTCVVVDVSQEDPEVQFNWYVDGVEVHNAKTKPREEQFASTYRVVSVLTVLHQDWLNGKEYKCKVSNKGLPSSIEKTISKAKGQPREPQVYTLPPSQKEMTKNQVSLTCLVKGFYPSDIAVEWESNGQPENNYKTTPPVLDSDGSFFLYSKLTVDKSRWQEGNVFSCSVMHEALHNRYTQKSLSLSP heavy 2: QVQLVQSGAEVKKPGASVKVSCKASGYTFTDYEMHWIRQPPGQGLEWIGAIDGKTPDTAYSQKFKGRVTLTADKSTSTAYMELSSLTSEDTAVYYCTRFYSYTYWGQGTLVTVSSASTKGPSVFPLAPCSRSTSESTAALGCLVKDYFPEPVTVSWNSGALTSGVHTFPAVLQSSGLYSLSSVVTVPSSSLGTQTYTCNVDHKPSNTKVDKRVESKYGPPCPPCPAPEFRGGPKVFLFPPKPKDTLMISRTPEVTCVVVDVSQEDPEVQFNWYVDGVEVHNAKTKPREEQFASTYRVVSVLTVLHQDWLNGKEYKCKVSNKGLPSSIEKTISKAKGQPREPQVYTLPPSQEEMTKNQVSLTCLVKGFYPSDIAVEWESNGQPENNYKTTPPVLDSDGSFFLYSKLTVDKSRWQEGNVFSCSVMHEALHNHYTQESLSLSP light: DIVMTQSPLSLPVTPGEPASISCRSSQSPVHSNRNTYLHWYQQKPGQAPRLLIYKVSNRFSGVPDRFSGSGSGTDFTLKISRVEAEDVGVYYCYQGTQVPYTFGQGTKLEIKRTVAAPSVFIFPPSDEQLKSGTASVVCLLNNFYPREAKVQWKVDNALQSGNSQESVTEQDSKDSTYSLSSTLTLSKADYEKHKVYACEVTHQGLSSPVTKSFNRGEC	15.4
TR01H040-E2702GsKsc/H0610-E2704sEpsc/L0211-k0 (bispecific antibody, human IgG4 S228P, kappa, N297A) heavy 1: QVQLVESGGGLVQPGRSLRLSCAASGFTFSNAWMHWVRQAPGKGLEWVAQIKDKSQNYATYYAESVKGRFTISRADSKNSIYLQMNSLKTEDTAVYYCRYVHYSASYGVDAWGQGTTVTVSSASTKGPSVFPLAPCSRSTSESTAALGCLVKDYFPEPVTVSWNSGALTSGVHTFPAVLQSSGLYSLSSVVTVPSSSLGTKTYTCNVDHKPSNTKVDKRVESKYGPPCPPCPAPEFRGGPKVFLFPPKPKDTLMISRTPEVTCVVVDVSQEDPEVQFNWYVDGVEVHNAKTKPREEQFASTYRVVSVLTVLHQDWLNGKEYKCKVSNKGLPSSIEKTISKAKGQPREPQVYTLPPSQKEMTKNQVSLTCLVKGFYPSDIAVEWESNGQPENNYKTTPPVLDSDGSFFLYSKLTVDKSRWQEGNVFSCSVMHEALHNRYTQKSLSLSP heavy 2: QVQLVQSGAEVKKPGASVKVSCKASGYTFTDYEMHWIRQPPGQGLEWIGAIDGKTPDTAYSQKFKGRVTLTADKSTSTAYMELSSLTSEDTAVYYCTRFYSYTYWGQGTLVTVSSASTKGPSVFPLAPCSRSTSESTAALGCLVKDYFPEPVTVSWNSGALTSGVHTFPAVLQSSGLYSLSSVVTVPSSSLGTQTYTCNVDHKPSNTKVDKRVESKYGPPCPPCPAPEFRGGPKVFLFPPKPKDTLMISRTPEVTCVVVDVSQEDPEVQFNWYVDGVEVHNAKTKPREEQFASTYRVVSVLTVLHQDWLNGKEYKCKVSNKGLPSSIEKTISKAKGQPREPQVYTLPPSQEEMTKNQVSLTCLVKGFYPSDIAVEWESNGQPENNYKTTPPVLDSDGSFFLYSKLTVDKSRWQEGNVFSCSVMHEALHNHYTQESLSLSP light: DIVMTQSPLSLPVTPGEPASISCRSSQPPVHSNRNTYLHWYQQKPGQAPRLLIYKVSNRFSGVPDRFSGSGSGTDFTLKISRVEAEDVGVYYCYQGTQVPYTFGQGTKLEIKRTVAAPSVFIFPPSDEQLKSGTASVVCLLNNFYPREAKVQWKVDNALQSGNSQESVTEQDSKDSTYSLSSTLTLSKADYEKHKVYACEVTHQGLSSPVTKSFNRGEC	15.5
TR01H040-E2702GsKsc/H0610-E2704sEpsc/L0209-k0 (bispecific antibody, human IgG4 S228P, kappa, N297A) heavy 1: QVQLVESGGGLVQPGRSLRLSCAASGFTFSNAWMHWVRQAPGKGLEWVAQIKDKSQNYATYYAESVKGRFTISRADSKNSIYLQMNSLKTEDTAVYYCRYVHYSASYGVDAWGQGTTVTVSSASTKGPSVFPLAPCSRSTSESTAALGCLVKDYFPEPVTVSWNSGALTSGVHTFPAVLQSSGLYSLSSVVTVPSSSLGTKTYTCNVDHKPSNTKVDKRVESKYGPPCPPCPAPEFRGGPKVFLFPPKPKDTLMISRTPEVTCVVVDVSQEDPEVQFNWYVDGVEVHNAKTKPREEQFASTYRVVSVLTVLHQDWLNGKEYKCKVSNKGLPSSIEKTISKAKGQPREPQVYTLPPSQKEMTKNQVSLTCLVKGFYPSDIAVEWESNGQPENNYKTTPPVLDSDGSFFLYSKLTVDKSRWQEGNVFSCSVMHEALHNRYTQKSLSLSP heavy 2: QVQLVQSGAEVKKPGASVKVSCKASGYTFTDYEMHWIRQPPGQGLEWIGAIDGKTPDTAYSQKFKGRVTLTADKSTSTAYMELSSLTSEDTAVYYCTRFYSYTYWGQGTLVTVSSASTKGPSVFPLAPCSRSTSESTAALGCLVKDYFPEPVTVSWNSGALTSGVHTFPAVLQSSGLYSLSSVVTVPSSSLGTQTYTCNVDHKPSNTKVDKRVESKYGPPCPPCPAPEFRGGPKVFLFPPKPKDTLMISRTPEVTCVVVDVSQEDPEVQFNWYVDGVEVHNAKTKPREEQFASTYRVVSVLTVLHQDWLNGKEYKCKVSNKGLPSSIEKTISKAKGQPREPQVYTLPPSQEEMTKNQVSLTCLVKGFYPSDIAVEWESNGQPENNYKTTPPVLDSDGSFFLYSKLTVDKSRWQEGNVFSCSVMHEALHNHYTQESLSLSP light: DIVMTQSPLSLPVTPGEPASISCRSSQSPVHSNRNTYIHWYQQKPGQAPRLLIYKVSNRFSGVPDRFSGSGSGTDFTLKISRVEAEDVGVYYCYQGTQVPYTFGQGTKLEIKRTVAAPSVFIFPPSDEQLKSGTASVVCLLNNFYPREAKVQWKVDNALQSGNSQESVTEQDSKDSTYSLSSTLTLSKADYEKHKVYACEVTHQGLSSPVTKSFNRGEC	7.4
TR01H040-E2702GsKsc/H0610-E2704sEpsc/L0204-k0 (bispecific antibody, human IgG4 S228P, kappa, N297A) heavy 1: QVQLVESGGGLVQPGRSLRLSCAASGFTFSNAWMHWVRQAPGKGLEWVAQIKDKSQNYATYYAESVKGRFTISRADSKNSIYLQMNSLKTEDTAVYYCRYVHYSASYGVDAWGQGTTVTVSSASTKGPSVFPLAPCSRSTSESTAALGCLVKDYFPEPVTVSWNSGALTSGVHTFPAVLQSSGLYSLSSVVTVPSSSLGTKTYTCNVDHKPSNTKVDKRVESKYGPPCPPCPAPEFRGGPKVFLFPPKPKDTLMISRTPEVTCVVVDVSQEDPEVQFNWYVDGVEVHNAKTKPREEQFASTYRVVSVLTVLHQDWLNGKEYKCKVSNKGLPSSIEKTISKAKGQPREPQVYTLPPSQKEMTKNQVSLTCLVKGFYPSDIAVEWESNGQPENNYKTTPPVLDSDGSFFLYSKLTVDKSRWQEGNVFSCSVMHEALHNRYTQKSLSLSP heavy 2: QVQLVQSGAEVKKPGASVKVSCKASGYTFTDYEMHWIRQPPGQGLEWIGAIDGKTPDTAYSQKFKGRVTLTADKSTSTAYMELSSLTSEDTAVYYCTRFYSYTYWGQGTLVTVSSASTKGPSVFPLAPCSRSTSESTAALGCLVKDYFPEPVTVSWNSGALTSGVHTFPAVLQSSGLYSLSSVVTVPSSSLGTQTYTCNVDHKPSNTKVDKRVESKYGPPCPPCPAPEFRGGPKVFLFPPKPKDTLMISRTPEVTCVVVDVSQEDPEVQFNWYVDGVEVHNAKTKPREEQFASTYRVVSVLTVLHQDWLNGKEYKCKVSNKGLPSSIEKTISKAKGQPREPQVYTLPPSQEEMTKNQVSLTCLVKGFYPSDIAVEWESNGQPENNYKTTPPVLDSDGSFFLYSKLTVDKSRWQEGNVFSCSVMHEALHNHYTQESLSLSP light: DIVMTQSPLSLPVTPGEPASISCRSSQSPVHSNRNTYLHWYQQKPGQAPRLLIYKVSNRFRGVPDRFSGSGSGTDFTLKISRVEAEDVGVYYCGQGTQVPYTFGQGTKLEIKRTVAAPSVFIFPPSDEQLKSGTASVVCLLNNFYPREAKVQWKVDNALQSGNSQESVTEQDSKDSTYSLSSTLTLSKADYEKHKVYACEVTHQGLSSPVTKSFNRGEC	4.4

Reference: patent publication US20170267783A1 (published 2017)
